Data taken from patent US20120171195A1.

Tests used:
[1] = target: HLA-B*1511 (human) (UniProt P01889); experiment: Luminex beads; MAb 1/100; PBS only
[2] = target: HLA-B*4501 (human); experiment: Luminex beads; MAb 1/100; PBS only
[3] = target: HLA-B*5101 (human); experiment: Luminex beads; MAb 1/100; PBS only
[4] = target: HLA-Cw*0202 (human); experiment: Luminex beads; MAb 1/100; PBS only
[5] = target: HLA-Cw*1402 (human) (UniProt P10321); experiment: Luminex beads; MAb 1/100; PBS only
[6] = target: HLA-B*0801 (human) (UniProt P01889); experiment: Luminex beads; MAb 1/100; competitor rHLA-E
[7] = target: HLA-B*1401 (human) (UniProt P01889); experiment: Luminex beads; MAb 1/100; competitor rHLA-E
[8] = target: HLA-B*1511 (human) (UniProt P01889); experiment: Luminex beads; MAb 1/100; competitor rHLA-E
[9] = target: HLA-B*1513 (human); experiment: Luminex beads; MAb 1/100; competitor rHLA-E
[10] = target: HLA-B*2708 (human) (UniProt P01889); experiment: Luminex beads; MAb 1/100; competitor rHLA-E
[11] = target: HLA-B*3701 (human); experiment: Luminex beads; MAb 1/100; competitor rHLA-E
[12] = target: HLA-B*4001 (human) (UniProt P01889); experiment: Luminex beads; MAb 1/100; competitor rHLA-E
[13] = target: HLA-B*4403 (human); experiment: Luminex beads; MAb 1/100; competitor rHLA-E
[14] = target: HLA-B*4501 (human); experiment: Luminex beads; MAb 1/100; competitor rHLA-E
[15] = target: HLA-B*4801 (human) (UniProt P01889); experiment: Luminex beads; MAb 1/100; competitor rHLA-E
[16] = target: HLA-Cw*0202 (human); experiment: Luminex beads; MAb 1/100; competitor rHLA-E
[17] = target: HLA-Cw*0303 (human); experiment: Luminex beads; MAb 1/100; competitor rHLA-E
[18] = target: HLA-Cw*0304 (human); experiment: Luminex beads; MAb 1/100; competitor rHLA-E
[19] = target: HLA-Cw*0501 (human); experiment: Luminex beads; MAb 1/100; competitor rHLA-E
[20] = target: HLA-Cw*0602 (human) (UniProt P10321); experiment: Luminex beads; MAb 1/100; competitor rHLA-E
[21] = target: HLA-Cw*0702 (human) (UniProt P10321); experiment: Luminex beads; MAb 1/100; competitor rHLA-E
[22] = target: HLA-Cw*1402 (human) (UniProt P10321); experiment: Luminex beads; MAb 1/100; competitor rHLA-E
[23] = target: HLA-Cw*1502 (human); experiment: Luminex beads; MAb 1/100; competitor rHLA-E
[24] = target: HLA-Cw*1701 (human); experiment: Luminex beads; MAb 1/100; competitor rHLA-E
[25] = target: HLA-Cw*0302 (human) (UniProt P10321); experiment: Luminex beads; MAb 1/200; competitor rHLA-E
[26] = target: HLA-B*3701 (human); experiment: Luminex beads; MAb 1/800; competitor rHLA-E
[27] = target: HLA-B*5101 (human); experiment: Luminex beads; MAb 1/800; competitor rHLA-E
[28] = target: HLA-Cw*0501 (human); experiment: Luminex beads; MAb 1/800; competitor rHLA-E
[29] = target: HLA-Cw*1402 (human) (UniProt P10321); experiment: Luminex beads; MAb 1/800; competitor rHLA-E
[30] = target: HLA-Cw*1601 (human) (UniProt P10321); experiment: Luminex beads; MAb 1/800; competitor rHLA-E
[31] = target: HLA-Cw*1802 (human) (UniProt P10321); experiment: Luminex beads; MAb 1/800; competitor rHLA-E
[32] = target: HLA-B*1401 (human) (UniProt P01889); experiment: Luminex beads; MAb 1/100; competitor IgG-free serum
[33] = target: HLA-B*1511 (human) (UniProt P01889); experiment: as above
[34] = target: HLA-B*1801 (human); experiment: as above
[35] = target: HLA-B*4006 (human) (UniProt P01889); experiment: as above
[36] = target: HLA-B*4101 (human) (UniProt P01889); experiment: as above
[37] = target: HLA-B*4403 (human); experiment: as above
[38] = target: HLA-B*5801 (human); experiment: as above
[39] = target: HLA-Cw*0202 (human); experiment: as above
[40] = target: HLA-Cw*0302 (human) (UniProt P10321); experiment: as above
[41] = target: HLA-Cw*0501 (human); experiment: as above
[42] = target: HLA-Cw*0602 (human) (UniProt P10321); experiment: as above
[43] = target: HLA-Cw*0702 (human) (UniProt P10321); experiment: as above
[44] = target: HLA-Cw*0801 (human) (UniProt P10321); experiment: as above
[45] = target: HLA-Cw*1402 (human) (UniProt P10321); experiment: as above
[46] = target: HLA-Cw*1701 (human); experiment: as above

Question: For “murine monoclonal antibody (MAb) MEM-E/02”, which MFI [1] is on record?
Answer: 3430 MFI

Question: What about the MFI [2] of the same substance?
Answer: 4770 MFI

Question: What about the MFI [3] of the same substance?
Answer: 2210 MFI

Question: What about the MFI [4] of the same substance?
Answer: 3880 MFI

Question: And the MFI [5]?
Answer: 3470 MFI

Question: And the MFI [6]?
Answer: 219 MFI

Question: And the MFI [7]?
Answer: 230 MFI

Question: What about the MFI [8] of the same substance?
Answer: 192 MFI

Question: And the MFI [9]?
Answer: 256 MFI

Question: And the MFI [10]?
Answer: 191 MFI

Question: And the MFI [11]?
Answer: 80 MFI

Question: What about the MFI [12] of the same substance?
Answer: 235 MFI

Question: What about the MFI [13] of the same substance?
Answer: 89 MFI

Question: What about the MFI [14] of the same substance?
Answer: 75 MFI

Question: What about the MFI [15] of the same substance?
Answer: 224 MFI

Question: What about the MFI [16] of the same substance?
Answer: 220 MFI

Question: What about the MFI [17] of the same substance?
Answer: 139 MFI

Question: And the MFI [18]?
Answer: 181 MFI

Question: And the MFI [19]?
Answer: 201 MFI

Question: And the MFI [20]?
Answer: 88 MFI

Question: And the MFI [21]?
Answer: 220 MFI

Question: What about the MFI [22] of the same substance?
Answer: 165 MFI

Question: And the MFI [23]?
Answer: 170 MFI

Question: And the MFI [24]?
Answer: 376 MFI

Question: What about the MFI [25] of the same substance?
Answer: 137 MFI

Question: What about the MFI [26] of the same substance?
Answer: 29 MFI

Question: What about the MFI [27] of the same substance?
Answer: 99 MFI

Question: And the MFI [28]?
Answer: 70 MFI

Question: And the MFI [29]?
Answer: 48 MFI

Question: And the MFI [30]?
Answer: 87 MFI

Question: What about the MFI [31] of the same substance?
Answer: 35 MFI

Question: What about the MFI [32] of the same substance?
Answer: 7080 MFI

Question: And the MFI [33]?
Answer: 3320 MFI

Question: And the MFI [34]?
Answer: 3510 MFI

Question: What about the MFI [35] of the same substance?
Answer: 9090 MFI

Question: What about the MFI [36] of the same substance?
Answer: 3390 MFI

Question: And the MFI [37]?
Answer: 3900 MFI

Question: What about the MFI [38] of the same substance?
Answer: 4570 MFI

Question: What about the MFI [39] of the same substance?
Answer: 4110 MFI

Question: And the MFI [40]?
Answer: 2200 MFI

Question: What about the MFI [41] of the same substance?
Answer: 7530 MFI

Question: And the MFI [42]?
Answer: 4180 MFI

Question: What about the MFI [43] of the same substance?
Answer: 3090 MFI

Question: And the MFI [44]?
Answer: 6070 MFI

Question: What about the MFI [45] of the same substance?
Answer: 3290 MFI

Question: What about the MFI [46] of the same substance?
Answer: 2820 MFI
